Data from US7410767.
One block for each binder: values may come before it.

Legend:
[1] = biological target: T1, HLA-E (as used in the in vitro peptide binding assay and in immunoprecipitation) (human), P13747; assay: in vitro peptide binding assay (ratio of optical densities); row .221-A*3601
[2] = biological target: T1, HLA-E (as used in the in vitro peptide …); assay: in vitro peptide binding assay (ratio of optical densities); row .221-B*5501
[3] = biological target: T1, HLA-E (as used in the in vitro peptide …); assay: in vitro peptide binding assay (ratio of optical densities); row .221-A*2403
[4] = biological target: T1, HLA-E (as used in the in vitro peptide …); assay: in vitro peptide binding assay (ratio of optical densities); row .221-A*2501
[5] = biological target: T1, HLA-E (as used in the in vitro peptide …); assay: in vitro peptide binding assay (ratio of optical densities); row .221-A*0201
[6] = biological target: T1, HLA-E (as used in the in vitro peptide …); assay: in vitro peptide binding assay (ratio of optical densities); row .221-A*0211

Concentration of peptide required to obtain 50% of binding to HLA-E [1]: 0.3 µM
Binder: VMAPRTLLL (modifications not checked)

Concentration of peptide required to obtain 50% of binding to HLA-E [2]: > 100 µM
Binder: VTAPRTLLL (modifications not checked)

Concentration of peptide required to obtain 50% of binding to HLA-E [3]: 0.06 µM
Concentration of peptide required to obtain 50% of binding to HLA-E [4]: 0.06 µM
Concentration of peptide required to obtain 50% of binding to HLA-E [5]: 0.06 µM
Concentration of peptide required to obtain 50% of binding to HLA-E [6]: 0.06 µM
Binder: VMAPRTLVL (modifications not checked)
